Laboratory results reported in the nanobody polyreactivity screen of Harvey et al. (2022).

Assay: yeast display, Sf9 membrane polyspecificity reagent, FACS + sequencing; frameworks hold sequencing errors
Procedure, shortened: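 Genes from sorted yeast were amplified by colony PCR, read by MiSeq 2 × 250 sequencing and filtered on CDR length. These cells carried a synthetic nanobody library in Saccharomyces cerevisiae BJ5465 and were sorted by FACS into low and high (top ~1%) gates on anti-HA and streptavidin fluorescence. Polyreactivity is labelled according to the gate of origin.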

| Sequence | polyreactivity (PSR sort gate) |
| --- | --- |
| QVQLQESVGGLVQAGGSLRLSCAASGNIFPTHRMGWYRQAPGKELEFVATISDGGSTNYADSVKGRFTISRDHAKNTVYLQMNSLKPEDTAVYYCAVLSLGRLRHYYWGQGTQVTVSS | low polyreactivity |
| QVQLVESGGGLVQAGGSLRLSCAASGPIFGFNAMGWYRQAPGKERELVARISSVGSTNYADSVKGRFTISRDNAKNTVYLQMNSLKPEDTAVYYCAAKRYYTQSSYYLALYDYWGQGTQVTVSS | low polyreactivity |
| QVQLVESGGGLVQAGGSLRLSCGASGSIFYQNVMGWYRQAPGKERELVAAISSSGDSTYYADSVKGRFTISRDNAKNTVYLQMNSLKPEDTAVYYCAAEPEYVSGPYDYWGQGTQVTVSS | low polyreactivity |
| QVQLVESGGGLVQAGGSLRLSCAASGSISQTYAMGWYRQAPGKERELVAAISSSGASTYYADSVKGRFTISRDNAKNTVYLQMNSLKPEDTAVYYCAVVPSSTYHSYDYWGQGTQVTVSS | high polyreactivity |
| QVQLVESGGGLVQAGGSLSLSCAASGRTFYRNAMGWYRQAPGKERELVAAISSDDSTNYADSVKGRFTISRDNAKNTVYLQMNSLKPEDTAVYYCNADYYYGYEYDYWGQGTQVTVSS | low polyreactivity |
| QVQLVESGGGLVQAGGSLRLSCAASGSIFFSYAMGWYRPAPGKERELVAAISSGGSTYYADSVKGRFTISRDNAKNTVYLPMNSLKPEDTAVFYCAARGYRLVPVDFYYWGQGTQVTVSS | low polyreactivity |
| QVQLQESGGGLVQAGGSLPLSCAASGTISVHATMGWYRQATGKERELVAGITDGANTYYADSVKGRFTISRDNSQNTVYLQMNSLTPEDTAVYYCAAYYGTVVHFTYWGQGTQVTVSS | low polyreactivity |
| QVQLVESGGGLVQAGGSLRLSCAASGSTFYGYGMGWYREAPGKERELVAAITGSGDTTYYADSVKGRFTISRDNAKNTVYLQMNSLKREDTAVYYCNAGWHAEYDYWGQGTQVTVSS | low polyreactivity |
| QVQLVESGGGLVQAGGSLRLSCAASGFTFEYNAMGWYRQAPGKERELVAVITYRGGSTYYADSVKGRFTISRDHAKNTVYLQMNSLKPEDTAVYYCAARLSSNYWGLKRWGYGYWGQGTQVTVSS | high polyreactivity |
| QVQLVESGGGLVQAGGSLRLSCAASGFTYRKYALGWYRQAPGKERELVAVINIVGSTYYADSVKGRFTISRDNAKNTVYLQMYSLTPEDTAVYYCAADWSYRLKYYWYGGFKYWGQGTQVTVSS | high polyreactivity |
| QDQLVDSGGGIVQAGGILSYSCDPSGSNVRYNAMGWYRQAPGKERELVAGIRGSGGITYYADSVKGRFTISRDNAKNTVYLQMNSLKPEDSAVYYCAADVVVCSYQEDHSWGQGTQVTESS | low polyreactivity |
| QVQLVESGGGLVQAGGSLRLSCAASGFILTDNAKGWNRQAPGKERELVAAINSGGSTYYADSVKGRFTISRDNAKNTVYLQMNSLKPEDTEVYYCAADYSTWLRAYDYWGQGTQVTVSS | low polyreactivity |
| QVQLVESGGGLVQAGGSLRLSCAASGSIFSGNAMGWYRQAPGKERELVAAISRSGGSTYYADSVKGRFTISRDYAKNTVYLQMNSLKPEDTAVYYCAKGQYYYIGDYDYWGQGTQVTVSS | high polyreactivity |
| QVQLVESGGGLVQAGGSLRLSCAASGNTFVKYTMGWYRQAPGKERELVAAITWSGGSTSYADSVKGRFTLSRDNAKNTVYLQMNSLKPEDTAVYYCAAAWSHSRWDTHDYWGQGTQVTVSS | low polyreactivity |
| QVQLVESGGGLVQAGGSLRLSCAASGSIFIRYAMGWYRQAPGKERELVASISRSGGSTYYADSVKGRFTISRDNAKNTVYLQMNSLKPEDTAVYYCAARRVRPNGYTSSPLDYWGQGTQVTVSS | high polyreactivity |
| QVQLVESGGGLVQAGGSLRLSCAASGFIFPEYAMGWYRQAPGKERELVAAINWSGGNTYYADSVKGSFTISRDNAKNTVYLQMNSLKPEDTAVYYCNVDDWVTDDDYWGQGTQVTVSS | low polyreactivity |

| Sequence | polyreactivity (PSR sort gate) |
| --- | --- |
| QVKLVESGGGLVHAGGSLRLICAASGFTFGEYAMVWSRQSPGKERELVAGISWSGGGTYYADSVKGRFTISRDNAKYTVYLQMNSLKPEDTAVYYCAAVLPSTSYKYDYWGQGTQVTVSS | low polyreactivity |
| QVQLVDSGGCLVQAGGSLRLSCAASGRTDGINAMGWYRQAPGKERELVAAIDSIDGTTYYADSVKGRFTISRDNAKNTVYLQMNSLKQEDTAVYYCAAEFISSYDYWGQGTQVTVSS | high polyreactivity |
| QVQLVESGGGLVQAGGSLRLSCAASGGTFWWYTMGWYRQAPGKERELVATITRGGSTNYADSVKGRFTISRDNAKNTVYLQMNSLKPEDTAVYYCAKRYRPYYSTYDYWGQGTQVTVSS | high polyreactivity |
| QVQHVESGGGLVQAGGSLRLSCAASGIIFYWYAMGWYRQAPGKERELVAAISRTGGSTYYADSVKGRFTISRDNAKNTVYLQMNSLKPEDTAVYYCAADDGGYWSAGHEYWGQGTQVTVSS | high polyreactivity |
| QVQLGESGGGLVQAGGSLRLSCAASGSIFGYYAMGWYRQAPGKERELVAAINYSGVSTYYADSVKGRFTISRDNAKNTVYLQMNSLKPEDTAVYYCAALRLYEPGPYGGPLRYGYWGQGTQVTVSS | high polyreactivity |
| QVQLVESGGGLVQAGGSLRLRCAASGSIFIRYAMGWYRQAPGKERELVAVISGRGVRTNYADSVKGRFTIARDTAKNPVYLQMNSLKPEDTAVYYCAVRYYGKQLGPGVRYTYNYLGQGTQVTVSS | high polyreactivity |
| QVQLVESGGGLVQGGGSLSLRCAASGSTFDYNAMGWYRQAPGKERDLVAVISGGSSTNYADSVKGRFTISRDNEKNTVYLQMNSLNPEDTAVYYCNARDYFVARAVSFVTYWLGVYWGQGTQVSVSS | low polyreactivity |
| QVQLVESGGGLVQAGGSLRLSCAASGSIFEKYAMGWYRQAPGKERELVAAISRGTNTKYADSVKGRFTISRDNAKNTVYLQMNSLKPEDTAVYNGAARYNTYRTRIYSMDYWGQGTQVTVSS | high polyreactivity |
| QVQLVESGGGLVQAGGSLRLSCASSGRIFVFNAMGWYRPAPGKERELVAAINWSGGTTYYADSVKGRFTISRDNAKNTVYLQMNSVNPEDTAVYYCNAYLNRRMGYWGQGTQVTVSS | high polyreactivity |
| QVQLVESGGGLVQAGGSLRLSCAASGSIFYYYAMGWYRQAPGKERELVAAITRSVSRTYYADSVKGRFTISRDNAKNTVYLQMNYLKPEVTAVYYCNVVGSSETSTVYYCGQGTQVTVSS | high polyreactivity |
| QVQLVESGGGLVQAGGSLRLSCAASGRTFYFYTMGWYRQAPGKERELVAAISWSGGSTYYADSVKGRFTISRDNAKNTVYLQMISLKPEDTAVYYCAASSPWEQSNDQFYYWGQGTQVTVSS | low polyreactivity |
| QVQLEESGGGLVQAGGSLRLSCAAYGGIFKQYAMGWYRQAPGKETELVAAITWSGGSTYYADSVKGRFTISRDNAKTTVSLQMNSLKPEDTAVYYCAKDYVVFQYVDFQDDDYWGQGTQVSVSS | low polyreactivity |
| QVHLVESGGGLVQAGGSLRLSCAASGSIFTYYAMGWYRQAPGKERELVAAISSDGSTTYADSVKGRFTISRDNAKNTVYLQMNSLKPEDTAVYYCAASSYNGHGYWGQGTQVTVSS | low polyreactivity |
| QVQLEESGGGLVQAGGSLRLSCAASGFTFYSYAKGCSRQAPGKERELVAAISWSGSRTYYADSVKGRFTISRDNAKNTVYLQMNSLKPEDTAVYVCNKYLPRHRYDFDYWGQGTQVTVSS | high polyreactivity |
| QVQLVESGGGLVQAGGSLRLSCAASGSIFKNYAMGWYRQAPGKERELVASITTGASTNYADSVKGLFTISRDNAMNTVYLQMNSLKPEDSAVYYCAAYRPTYYAYYYWGQGTQVTVSS | high polyreactivity |
| QVQLVESGGGLVQAGGSLRLSCAASGSIRYYYVMGWYRQAPGKERELVAAITSGGSTYYADSVKGRFTISRDNAKNTVYLQMNSLKPEDTAVYYCNARTRSLTGSRFNYWGQVTQVTVSS | high polyreactivity |
